For data set [1], the target named is esterase EstOF4 from Bacillus pseudofirmus OF4 (Bacillus pseudofirmus OF4). The experiment in a line: SEC; Superdex200 10/30 column calibrated with cytochrome C, carbonic anhydrase, bovine serum albumin and alcohol dehydrogenase; native molecular weight of purified EstOF4.
Substrate in data set [2]: CC(=O)Oc1ccc([N+](=O)[O-])cc1
The experiment in a line: purified protein. In kind it is biochemical, Alkalihalophilus pseudofirmus. Conditions: 50 mM Tris-HCl pH 8.5, 50 °C.

Substrate in data set [3]: CCCCCCCC(=O)Oc1ccc([N+](=O)[O-])cc1
The experiment in a line: purified protein. In kind it is biochemical, Alkalihalophilus pseudofirmus. Conditions: 50 mM Tris-HCl pH 8.5, 50 °C.

Substrate in data set [4]: CCC(=O)Oc1ccc([N+](=O)[O-])cc1
The experiment in a line: purified protein. Type of data set: biochemical, Alkalihalophilus pseudofirmus. The conditions noted are these: 50 mM Tris-HCl pH 8.5, 50 °C.

Substrate in data set [5]: CCCCCCCCCC(=O)Oc1ccc([N+](=O)[O-])cc1
The experiment in a line: purified protein. Type of data set: biochemical, Alkalihalophilus pseudofirmus. Conditions: 50 mM Tris-HCl pH 8.5, 50 °C.

Substrate in data set [6]: CCCCCCCCCCCC(=O)Oc1ccc([N+](=O)[O-])cc1
The experiment in a line: purified protein. Conditions: 50 mM Tris-HCl pH 8.5, 50 °C. In kind it is biochemical, Alkalihalophilus pseudofirmus.

Substrate in data set [7]: CCCC(=O)Oc1ccc([N+](=O)[O-])cc1
The experiment in a line: purified protein. In kind it is biochemical, Alkalihalophilus pseudofirmus. The conditions noted are these: 50 mM Tris-HCl pH 8.5, 50 °C.

Substrate in data set [8]: CCCCCC(=O)Oc1ccc([N+](=O)[O-])cc1
The experiment in a line: purified protein. In kind it is biochemical, Alkalihalophilus pseudofirmus. Conditions: 50 mM Tris-HCl pH 8.5, 50 °C.

In data set [1], “esterase EstOF4 from Bacillus pseudofirmus OF4 (enzyme)” gave a stoichiometry N of 2.

B1: EstOF4 (Alkalihalophilus pseudofirmus OF4) (protein)
chain: MKVVAPKPFTFEGGDRAVLLLHGFTGTTADVRMIGRHLQKEGYTCHAPLYKGHGVPPEELVHTGPEDWWKDVEAGYNYLKEKGHEEIAVCGLSLGGVFSLKIGYTLPVKGIVPMCAPVRPKTEDAMYKGVLAYAREYKKREQKSDDVINQEMEAFKPMGTLSALGELIQDVHNHLDHIYSPTFVVQARNDEMIDVESANIIHDQIESDEKSLKWYEESGHVITLDKEKEQLHEDILQFLEGLDWTV
notes: full-length ORF (246 aa, 741 bp, no signal peptide), pET-28a NdeI/BamHI, N-terminal His tag, E. coli BL21(DE3); about 35 kDa SDS-PAGE, 64 kDa native dimer
For B1, the Km in “purified protein [2]” worked out at 37 ± 6 µM; in the data set “purified protein [3]”, 102 ± 3 µM; in the data set “purified protein [4]” it was 94 ± 9 µM; in the data set “purified protein [5]”, 173 ± 8 µM; in “purified protein [6]” it was 42 ± 5 µM; in the data set “purified protein [7]”, 90 ± 9 µM. The Km in the data set “purified protein [8]” is 60 ± 6 µM. Further, the kcat in “purified protein [2]” came out at 2.07 ± 0.0667 s⁻¹; in “purified protein [3]” it was 1.75 ± 0.0333 s⁻¹; in “purified protein [4]” it was 3.52 ± 0.0667 s⁻¹; in “purified protein [5]” it was 1.17 ± 0.0667 s⁻¹; in “purified protein [6]”, 0.1 ± 0.0167 s⁻¹; in “purified protein [7]”, 3.65 ± 0.0667 s⁻¹. Moreover, the kcat in the data set “purified protein [8]” was 5.48 ± 0.1 s⁻¹. Further, the kcat/Km was 56700 M⁻¹ s⁻¹ in the data set “purified protein [2]”; 16700 M⁻¹ s⁻¹ in the data set “purified protein [3]”; 38300 M⁻¹ s⁻¹ in the data set “purified protein [4]”; 6670 M⁻¹ s⁻¹ in “purified protein [5]”; 1670 M⁻¹ s⁻¹ in the data set “purified protein [6]”; 40000 M⁻¹ s⁻¹ in the data set “purified protein [7]”. Moreover, the kcat/Km in the data set “purified protein [8]” was 91700 M⁻¹ s⁻¹.

By stoichiometry N is commonly meant a count of units in the complex or per binding partner. One may read the Km as the substrate concentration at which the rate is half of its maximum. Broadly, the kcat is the maximal rate divided by the concentration of active sites. In general, kcat/Km refers to the second-order rate constant that governs catalysis at low substrate concentration.

For the origin of these results see PMC3618048, “A Novel Alkaliphilic Bacillus Esterase Belongs to the 13th Bacterial Lipolytic Enzyme Family” (PLoS ONE, 2013).
